US20100098709A1 (AstraZeneca / MedImmune, published 2010)
Positions count from the first letter of the chain named.

T1: FLAG HIS tagged soluble IL-6Ra (human, UniProt P08887 20-358, limits assumed)
T1 construct: the key was followed; also called HIS FLAG sIL-6R; FLAG-sIL-6R
T1 sequence: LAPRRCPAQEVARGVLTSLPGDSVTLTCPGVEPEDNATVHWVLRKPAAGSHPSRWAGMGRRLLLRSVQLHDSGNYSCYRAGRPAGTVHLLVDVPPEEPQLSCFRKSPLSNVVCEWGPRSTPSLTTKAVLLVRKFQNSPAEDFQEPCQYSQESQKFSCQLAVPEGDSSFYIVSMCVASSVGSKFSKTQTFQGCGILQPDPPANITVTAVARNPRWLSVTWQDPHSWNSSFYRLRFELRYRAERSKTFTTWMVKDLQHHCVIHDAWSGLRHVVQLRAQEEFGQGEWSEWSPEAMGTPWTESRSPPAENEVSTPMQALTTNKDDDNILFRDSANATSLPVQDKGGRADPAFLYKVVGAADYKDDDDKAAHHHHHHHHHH

B1: Antibody 3 scFv (scFv, V domains shown)
VH: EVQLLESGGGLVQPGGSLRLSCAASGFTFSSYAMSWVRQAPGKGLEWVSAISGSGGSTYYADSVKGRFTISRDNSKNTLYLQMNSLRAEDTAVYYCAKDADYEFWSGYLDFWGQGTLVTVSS
VL: QSVLTQPPSVSGAPGQRVNISCTGSSSNIGAGYDVHWYQQLPGTAPKLLIYGNNNRPSGVPDRFSGSKSGTSASLAITGLQAEDEADYYCQSYDSSLSGYVFGTGTKVTVLG
notes: also called Ab 3
B2: Antibody 3 IgG (antibody, V domains shown)
VH: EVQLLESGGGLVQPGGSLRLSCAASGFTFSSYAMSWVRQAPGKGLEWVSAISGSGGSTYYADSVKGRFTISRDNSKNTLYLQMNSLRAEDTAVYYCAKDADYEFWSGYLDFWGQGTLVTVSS
VL: B1 VL
notes: also called Ab 3
B3: Antibody 5 IgG (antibody, V domains shown)
VH: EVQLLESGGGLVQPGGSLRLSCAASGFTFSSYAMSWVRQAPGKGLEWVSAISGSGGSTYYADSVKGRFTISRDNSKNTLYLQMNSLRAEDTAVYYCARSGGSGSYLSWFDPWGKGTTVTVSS
VL: B1 VL with N19T, N54S, Y100W, T104G
notes: also called Ab 5
B4: Antibody 5 scFv (scFv, V domains shown)
VH: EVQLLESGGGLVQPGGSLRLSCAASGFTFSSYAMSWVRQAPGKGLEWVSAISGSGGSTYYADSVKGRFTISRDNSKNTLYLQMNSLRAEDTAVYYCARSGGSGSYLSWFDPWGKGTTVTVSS
VL: B1 VL with N19T, N54S, Y100W, T104G
notes: also called Ab 5
B5: Antibody 4 scFv (scFv, V domains shown)
VH: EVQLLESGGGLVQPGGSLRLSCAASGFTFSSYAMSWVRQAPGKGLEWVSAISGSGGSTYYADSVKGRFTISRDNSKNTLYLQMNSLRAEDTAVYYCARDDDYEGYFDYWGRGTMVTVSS
VL: QAVLTQPSSVSGAPGQRVSISCTGSSSNIGAGYEVHWYQHLPGTAPKLLIYGNNNRPSGVPDRFSGSKSGTSASLAITGLQAEDEADYYCQSYDNNLPGSRVFGGGTKVTVLG
notes: also called Ab 4
B6: Antibody 4 IgG (antibody, V domains shown)
VH: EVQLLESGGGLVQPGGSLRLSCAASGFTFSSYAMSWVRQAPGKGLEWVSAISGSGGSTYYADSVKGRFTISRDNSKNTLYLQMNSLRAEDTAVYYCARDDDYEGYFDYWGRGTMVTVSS
VL: B5 VL
notes: also called Ab 4
B7: Antibody 1 scFv (scFv, V domains shown)
VH: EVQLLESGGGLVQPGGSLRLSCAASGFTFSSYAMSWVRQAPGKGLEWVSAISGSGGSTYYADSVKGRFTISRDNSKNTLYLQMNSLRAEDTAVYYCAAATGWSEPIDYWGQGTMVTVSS
VL: SYVLTQPPSVSVAPGQTATITCGGNNIGLKSVHWYQQKPGQAPLLVVHDDSARPSGIPERFSGSNSGNTATLTISRVEAGDEADYSCQVWDNSGGLWVFGGGTKVTVLG
notes: also called Ab 1
B8: Antibody 1 IgG (antibody, V domains shown)
VH: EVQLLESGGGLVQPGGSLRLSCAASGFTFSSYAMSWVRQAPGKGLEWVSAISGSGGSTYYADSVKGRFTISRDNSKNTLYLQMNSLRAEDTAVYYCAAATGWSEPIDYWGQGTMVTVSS
VL: B7 VL
notes: also called Ab 1
B9: Antibody 2 scFv (scFv, V domains shown)
VH: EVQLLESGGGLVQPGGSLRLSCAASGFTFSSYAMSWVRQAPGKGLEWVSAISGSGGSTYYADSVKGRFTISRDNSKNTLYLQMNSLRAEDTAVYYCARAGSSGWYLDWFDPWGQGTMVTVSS
VL: QAVLTQPSSVSGAPGQRVTISCAGSSSNIGAGYDVHWYQQVPGTAPKLLIYGDTNRPSGVPDRFSGSKFGTSASLTITGLQAEDEADYYCQSYDNSLSTSDWVFGGGTKVTVLG
notes: also called Ab 2
B10: Antibody 2 IgG (antibody, V domains shown)
VH: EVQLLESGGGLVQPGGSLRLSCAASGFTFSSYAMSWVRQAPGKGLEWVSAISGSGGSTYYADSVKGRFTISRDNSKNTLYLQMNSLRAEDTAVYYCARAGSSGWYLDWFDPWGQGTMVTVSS
VL: B9 VL
notes: also called Ab 2

Columns and labels:
[1] = target: T1, FLAG HIS tagged soluble IL-6Ra; assay: phage ELISA, antigen on anti-FLAG plate
[2] = target: T2, biotinylated anti-FLAG monoclonal antibody (Sigma F9291); assay: phage ELISA, anti-FLAG treated plate alone
T2 construct: Control coat of the phage ELISA plates (streptavidin plate treated with the anti-FLAG antibody, then MPBS only); also called anti FLAG antibody treated plates alone

[3] = target: T1, FLAG HIS tagged soluble IL-6Ra; assay: phage ELISA
[4] = target: T1, FLAG HIS tagged soluble IL-6Ra; assay: ELISA and HTRF soluble binding assay, IgG
[5] = target: T3, HIS FLAG irrelevant ligand; assay: HTRF soluble binding assay, 1 nM IgG, 20 nM HIS FLAG protein
T3 construct: Unnamed control of the HTRF soluble assay; also called irrelevant FLAG HIS ligand
Description: (§1) Purified IgG from positive clones identified from screening of crude periplasmic scFv and purified scFv, were tested in a HTRF® assay for binding to FLAG HIS tagged Hyper IL-6, FLAG HIS IL-6 and FLAG HIS sIL-6R.
(§2) Example data for binding of IgG of positive clones identified from screening of crude periplasmic scFv. Data shown in table 3 is expressed as % delta F at an IgG concentration of 1 nM (final assay concentration) and 20 nM of HIS FLAG protein (final assay concentration).

[6] = target: T4, HIS FLAG irrelevant receptor; assay: as above
T4 construct: Unnamed control of the HTRF soluble assay; also called irrelevant FLAG HIS receptor
Description: as §1, §2

[7] = target: T1, FLAG HIS tagged soluble IL-6Ra; assay: as above
Description: as §1, §2

[8] = target: T1, FLAG HIS tagged soluble IL-6Ra; assay: ELISA, IgG captured by anti-human Fc, 50 nM protein
Description: (§3) Immunoassay plates were washed 3 times using PBST, then blocked by addition of 300 μl/well MPBS for 1 h at room temperature. After a second washing step 2 μg/ml of the anti-complex antibody in PBS was added to the plate at 50 μl/well. The plates were incubated for 1 h at room temperature before being washed again as previously described. FLAG-tagged reagents (IL-6, sIL-6R, Hyper Complexes) were diluted to 50 nM in MPBS. Complexes were made using 50 nM of the FLAG-tagged component and a 2-fold molar excess of the untagged component. Four-fold serial dilutions were prepared of each of the reagents, which were then added to duplicate wells of the immunoassay plates at 50 μl/well. Control wells containing 50 nM irrelevant protein (in this case his FLAG tagged murine GMCSF-R), or MPBS only were also prepared. The immunoassay plates were then incubated for 1 h at room temperature. After a further washing step, biotinylated anti-FLAG monoclonal antibody (Sigma) diluted to 1 μg/ml in MPBS was added to all wells at 50 μl/well. The plates were incubated for 1 h at room temperature before the plates were again washed as before. Europium labelled streptavidin (Perkin Elmer 1244-360) was diluted to 100 ng/ml in Delfia assay buffer (Perkin Elmer 4002-0010), added to all wells at 50 μl/well and incubated for 1 h at room temperature. The immunoassay plates were then washed 7 times in Delfia wash buffer, consisting of 0.05 M Tris buffered saline (NaCl-0.138 M, KCl-0.0027 M) Tween 20 (0.05%), pH 8.0 (at 25° C.). A 50 μl volume of Delfia enhancement solution (Perkin Elmer 4001-0010) was then added to all wells. The plates were incubated for 10 mins before the Time-resolved fluorescence was measured at 620 nm using an EnVision plate reader.

[9] = target: T5, HIS FLAG tagged human IL-6 (human, UniProt P05231 30-212); assay: ELISA and HTRF soluble binding assay, IgG
T5 construct: also called HIS FLAG IL-6; FLAG-IL-6

[10] = target: T5, HIS FLAG tagged human IL-6; assay: HTRF soluble binding assay, 1 nM IgG, 20 nM HIS FLAG protein
Description: as §1, §2

[11] = target: T6, FLAG HIS tagged Hyper IL-6; assay: as above
T6 construct: also called HIS FLAG Hyper IL-6
Description: as §1, §2

[12] = target: T6, FLAG HIS tagged Hyper IL-6; assay: HTRF, inhibition of Hyper IL-6 binding to biotinylated gp130 Fc; IgG
Description: Purified IgG from positive clones identified from screening of crude periplasmic scFv and purified scFv were tested in a HTRF® assay for inhibition of binding of FLAG HIS tagged Hyper IL-6 binding to biotinylated recombinant human gp130 Fc. This assay was performed as for purified scFv (Example 3) with the following modifications. 6 nM biotinylated human recombinant gp130 Fc (10 μl/well) was used to give a final concentration of 1 nM of gp130Fc.
Purified scFv were diluted 1:3 by transferring 15 μl of purified scFv to 30 μl assay buffer and mixing by pipetting in 96 well plate (Greiner 650201). Dilutions were carried out sequentially in duplicate a further 9 times. 3 nM GP130 Fc (10 μl/well) to give a final concentration of 0.5 nM, 6 nM Hyper IL-6 (10 μl/well) to give a final concentration of 1 nM and combined HTRF reagents 2.598 nM anti-flag IgG labelled with cryptate and 30 nM anti-human Fc antibody labelled with XL665 (10 μl/well) were added to 30 μl of purified scFv titration in 96 well plate. 40 μl was then transferred to a black 384 well optiplate. All dilutions were performed in assay buffer.

[13] = target: T7, Complex 1: HIS FLAG IL-6/sIL-6R (human, UniProt P05231 30-212; P08887 20-358, limits assumed); assay: ELISA, IgG captured by anti-human Fc, 50 nM protein
T7 construct: Non-covalent complex made by pre-incubating the two proteins; The untagged sIL-6R was bought; also called IL-6/sIL-6R complex consisting of FLAG tagged ligand and untagged receptor
Description: as §3

[14] = target: T8, Complex 2: IL-6/HIS FLAG sIL-6R (human, UniProt P05231 30-212; P08887 20-358, limits assumed); assay: as above
T8 construct: Non-covalent complex made by pre-incubating the two proteins; Untagged IL-6 was bought; also called IL-6/sIL-6R complex consisting of untagged ligand and FLAG tagged receptor
Description: as §3

[15] = target: T5, HIS FLAG tagged human IL-6; assay: as above
Description: as §3

[16] = target: T6, FLAG HIS tagged Hyper IL-6; assay: as above
Description: as §3

[17] = target: T7, Complex 1: HIS FLAG IL-6/sIL-6R; assay: phage ELISA, antigen on anti-FLAG plate
[18] = target: T8, Complex 2: IL-6/HIS FLAG sIL-6R; assay: phage ELISA, antigen on anti-FLAG plate
[19] = target: T5, HIS FLAG tagged human IL-6; assay: phage ELISA, antigen on anti-FLAG plate
[20] = target: T6, FLAG HIS tagged Hyper IL-6; assay: phage ELISA, antigen on anti-FLAG plate
[21] = target: T5, HIS FLAG tagged human IL-6; assay: phage ELISA

Binder	Absorbance (450 nM) [1]	Absorbance (450 nM) [2]	binding result [3]	binding result [4]	% delta F [5] [%]	% delta F [6] [%]	% delta F [7] [%]	Europium Counts [8] [counts]	also measured
B1	0.056	0.049	no binding	–	–	–	–	–	–
B2	–	–	–	no binding	10	11	6	1420	–
B3	–	–	–	no binding	1	3	9	1500	binding result [9]: no binding; % delta F [10]: 4%; % delta F [11]: 331%; IC50 [12]: 700 pM; Europium Counts [13]: 120000 counts; Europium Counts [14]: 417000 counts; Europium Counts [15]: 1730 counts; Europium Counts [16]: 383000 counts
B4	0.061	0.062	no binding	–	–	–	–	–	Absorbance (450 nM) [17]: 0.331; Absorbance (450 nM) [18]: 0.747; Absorbance (450 nM) [19]: 0.065; Absorbance (450 nM) [20]: 0.833; binding result [21]: no binding
B5	0.167	0.053	no binding	–	–	–	–	–	–
B6	–	–	–	no binding	13	7	18	2000	–
B7	0.059	0.052	no binding	–	–	–	–	–	–
B8	–	–	–	no binding	8	11	4	1340	–
B9	0.083	0.052	no binding	–	–	–	–	–	–
B10	–	–	–	no binding	11	5	10	2450	–
